Test results from patent US11319374B2, “Inhibitors of prototypic galectin dimerization and uses thereof” (INSTITUT NATIONAL DE LA RECHERCHE SCIENTIFIQUE, priority 2015, dated 2022).
Where no end group is shown, it is not given here.

What was measured:
hGal-7 homodimer = target: T1, hGal-7 homodimer (Homo sapiens, UniProt P47929); test: hGal-7 homodimer disruption, low-SDS native gel electrophoresis / Western blotting; format: biochemical; details: recombinant hGal-7 0.5 μM, increasing peptide concentrations
T1 construct: made in house; host or cells: E. coli BL21 (DE3)
Procedure: Production of recombinant hGal-7 and hGal-1. Human Gal-7 cDNA was cloned into pET-22b(+) using Ndel and HindIII restriction enzymes. Human pET-Gal-1 vector was generously donated by Dr. S. Sato (McGill University, QC, Canada). The proteins were produced in E. coli BL21 (DE3) cells at 37° C. Isopropyl p-D-1-thiogalactopyranoside (IPTG) (1 mM) was added to the bacterial culture at OD600nm=0.6-0.7 and then incubated for 4 h at 37° C. to allow protein production. Bacterial pellets were resuspended in lysis buffer (0.7 mg/mL lysozyme, 10 mM Tris pH 8, 100 mM NaCl, 1 mM EDTA, 1 mM DTT and a protease inhibitor cocktail) and then incubated for 1 h at 37° C. prior to centrifugation for 30 min at 15,000×g (4° C.). The supernatant was then filtered with 500 mL bottle top filter ([…]) (Corning®, New York, N.Y., USA) and then ran through a lactose-agarose column (Sigma®, St. Louis, Mo., USA). The protein was eluted in 1 mL fractions with 150 mM lactose solution. Purified fractions were analyzed by SDS-PAGE. The hGal-7 was then concentrated and purified using Centrifugal filter units (Amicon® Ultra-15, 10K) (EMD®, Etobicoke, ON) in 20 mM potassium phosphate at pH 7.1. All subsequent experiments with the recombinant proteins were performed in the same buffer solution unless mentioned otherwise. Brilliant Coomassie blue was purchased from BioRad® (Bio-Rad Laboratories®, Mississauga, ON, Canada). The recombinant human Bcl-2 protein fragment was purchased from Abcam® (Abcam®, Cambridge, UK, Cat #ab73696).
Western blotting. For the apoptosis tests, whole-cell extracts were homogenized and resuspended in RIPA buffer (Thermo Fisher Scientific®, Rockford, Ill., USA) containing protease inhibitors (Roche®, Laval, QC, Canada). Equal amounts of whole-cell extracts (25 μg) were separated on SDS-PAGE and transferred onto nitrocellulose membranes (Bio-Rad Laboratories®). The membranes were first blocked with 5% milk [w/v] in TBS/0.5% Tween® 20 [v/v] for 1 h at room temperature and subsequently blotted overnight in a solution of TBS containing 3% BSA [w/v] and 0.5% Tween 20 [v/v]. The following antibodies were used: a rabbit anti-Poly-(ADP-ribose) polymerase (PARP)-1 (p25) polyclonal antibody (1:5000; Epitomics®, Burlingame, Calif., USA) and a mouse anti-β-actin (1:10000; Sigma-Aldrich®, St-Louis, Mo., USA). Secondary antibodies consisted of horseradish peroxidase-conjugated donkey anti-rabbit (GE Healthcare®, Buckinghamshire, England) and sheep anti-mouse (GE Healthcare®) IgG. Detection was performed using the enhanced chemiluminescence method (GE Healthcare®). For the recombinant protein tests, each peptide was dissolved and maintained in 20 mM potassium phosphate at pH 7.1. The recombinant proteins and peptide dilutions were pre-incubated for 1 h at 4° C. prior to gel migration. The native polyacrylamide gel was made without SDS to allow molecular weight differentiation between the dimer and monomer. The following antibodies were used: a goat anti-Gal-7 antibody (1:10000; R&D Systems®, Minneapolis, Minn., USA), a mouse anti-Gal-1 antibody (1:10000; Proteintech®, Chicago, Ill., USA) and a rabbit anti-Bcl-2 antibody (1:1000; Abeam®, Cambridge, UK). Secondary antibodies consisted of donkey anti-goat (R&D Systems®) or sheep anti-mouse and sheep anti-rabbit (GE Healthcare®) IgG. Detection was performed as described above.
To determine whether these peptides could inhibit the formation of the hGal-7 homodimer, recombinant hGal-7 (0.5 μM) was incubated with increasing concentrations of hGal-7(13-25), hGal-7(85-102), hGal-7(95-108) or hGal 7(129-135) and the formation of homodimers was measured. To measure the ability of the peptides to disrupt the formation of hGal-7 dimers, a mild denaturing (low SDS) native gel electrophoresis, a commonly used approach to visualize monomer-dimer equilibrium, was used (FIG. 1A and FIG. 6).

Jurkat T cells [1] = test: FITC-labeled hGal-7 binding on Jurkat T cells, flow cytometry; format: cell-based; details: FITC-labeled hGal-7 0.1 μM pre-incubated with peptide, FIG. 4
Procedure: FITC conjugation and hGal-7 binding assay. To assess hGal-7 binding onto Jurkat T cells, 5 μL of a 1.25 mg/mL fluorescein isothiocyanate (FITC)/DMSO solution was added to 300 μL of 1.7 μg/μL recombinant hGal-7 in a 0.1 M NaHCO3 pH 9.2 solution and incubated for 1 h at room temperature on a roller. FITC-labeled hGal-7 was then purified using a PD-10 Sepharose® column (GE healthcare) and eluted with PBS containing 0.01% [v/v] sodium azide. FITC-labeled hGal-7 (0.1 μM) was then pre-incubated with hGal-7(129-135) (or related peptides) in 20 mM potassium phosphate buffer pH 7.1 for 1 h at 4° C. Jurkat cells (5×10^5 cells per sample) were harvested in PBS-0.01% [v/v] sodium azide and incubated for 30 min on ice with the FITC-labeled hGal-7 with and without peptides. Cells were then washed with PBS-0.01% [v/v] sodium azide and resuspended in 400 μL of the same buffer and analyzed on a FACSCalibur® (BD Biosciences®).
(§1) It was thus tested whether hGal-7(129-135) could modulate the binding of hGal-7 on Jurkat T cells, a cell model that is commonly used to test the pro-apoptotic activity of galectins. For this purpose, recombinant hGal-7 was labeled with fluorescein isothiocyante (FITC) and its binding on the surface of Jurkat T cells was measured by flow cytometry in absence or presence of increasing concentrations of hGal-7(129-135). […]

Jurkat T cells [2] = test: hGal-7-induced apoptosis of Jurkat T cells, PARP-1 cleavage by Western blotting; format: cell-based; details: 4 h at 37° C., serum-free RPMI, FIG. 5A
Procedure: Western blotting. For the apoptosis tests, whole-cell extracts were homogenized and resuspended in RIPA buffer (Thermo Fisher Scientific®, Rockford, Ill., USA) containing protease inhibitors (Roche®, Laval, QC, Canada). Equal amounts of whole-cell extracts (25 μg) were separated on SDS-PAGE and transferred onto nitrocellulose membranes (Bio-Rad Laboratories®). The membranes were first blocked with 5% milk [w/v] in TBS/0.5% Tween® 20 [v/v] for 1 h at room temperature and subsequently blotted overnight in a solution of TBS containing 3% BSA [w/v] and 0.5% Tween 20 [v/v]. The following antibodies were used: a rabbit anti-Poly-(ADP-ribose) polymerase (PARP)-1 (p25) polyclonal antibody (1:5000; Epitomics®, Burlingame, Calif., USA) and a mouse anti-β-actin (1:10000; Sigma-Aldrich®, St-Louis, Mo., USA). Secondary antibodies consisted of horseradish peroxidase-conjugated donkey anti-rabbit (GE Healthcare®, Buckinghamshire, England) and sheep anti-mouse (GE Healthcare®) IgG. […]
as §1

Jurkat T cells [3] = test: Apoptosis/toxicity of peptide alone in Jurkat T cells, Annexin V/PI; format: cell-based
Procedure: FIG. 8A: Flow cytometry histogram showing propidium iodide (PI) (FL3) labeling of Jurkat T cells without or with 200 μM of hGal-7(129-135). FIG. 8B: Histogram showing the average percentage of Annexin-V (AV) positive Jurkat T cells in the presence of increasing concentrations of […]. FIG. 8C: Flow cytometry histogram showing PI (FL3) labeling of Jurkat T cells without or with 200 μM of PACAP28-38 FIG. 8D: Histogram showing the average percentage of AV-positive Jurkat T cells in the presence of increasing concentrations of PACAP28-38. The percentage of cell death was obtained as described above. Error bars represent standard deviation. Significance was calculated with respect to AF samples. Results are representative of three independent experiments.
Apoptosis assays with Annexin V/PI staining. Apoptosis was measured by flow cytometry using FITC-labeled Annexin V (Biolegend®, San Diego, Calif., USA) and propidium iodide. Briefly, the corresponding dilutions of recombinant hGal-7 and hGal-7(129-135) peptides were pre-incubated for 1 h at 4° C. in serum-free RPMI 1640 medium. 2.5×10^5 Jurkat cells were then harvested in the same medium and incubated with their corresponding dilutions at 37° C. for 4 h. Cells were washed once in PBS and once in binding buffer (0.01 M HEPES, 0.14 M NaCl, 2.5 mM CaCl2, pH 7.4). Cells were then incubated for 15 min with Annexin V in the dark at room temperature. A total of 400 μL of binding buffer containing 0.25 μg/mL propidium iodide was added to the cells before analysis by flow cytometry.

T1 sequence (P47929 2-136 limits assumed): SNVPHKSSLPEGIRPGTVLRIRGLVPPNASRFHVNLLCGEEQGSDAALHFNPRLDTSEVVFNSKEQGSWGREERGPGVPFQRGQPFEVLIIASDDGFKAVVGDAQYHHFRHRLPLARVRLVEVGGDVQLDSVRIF

Substance	disruption of hGal-7 homodimers (in words) (hGal-7 homodimer)	fluorescent intensity of Jurkat T cells due to FITC-labeled hGal-7 binding (Jurkat T cells [1])	inhibition of hGal-7-induced apoptosis, PARP-1 cleavage (Jurkat T cells [2])	toxicity in Jurkat T cells (Jurkat T cells [3]; PI labeling at 200 μM, Annexin V at increasing concentrations, FIGS. 8A to 8D)	induction of apoptosis by peptide alone (Jurkat T cells [3]; peptide alone, FIG. 8)
H-Ile-Arg-Pro-Gly-Thr-Val-Leu-Arg-Ile-Arg-Gly-Leu-Val-NH2 (H-IRPGTVLRIRGLV-NH2; listed as Homo sapiens) [hGal-7(13-25), peptide corresponding to residues 13-25 of hGal-7]	less potent than hGal-7(129-135)				
H-Asp-Gly-Phe-Lys-Ala-Val-Val-Gly-Asp-Ala-Gln-Tyr-His-His-NH2 (H-DGFKAVVGDAQYHH-NH2; listed as Homo sapiens) [hGal-7(95-108), peptide corresponding to residues 95-108 of hGal-7]	less potent than hGal-7(129-135)				
H-Phe-Glu-Val-Leu-lle-Ile-Ala-Ser-Asp-Asp-Gly-Phe-Lys-Ala-Val-Val-Gly-NH2 (H-FEVLIIASDDGFKAVVG-NH2; listed as Homo sapiens) [hGal-7(85-102), peptide corresponding to residues 85-102 of hGal-7]	less potent than hGal-7(129-135)				
L-A-S-V-R-I-F-NH2 (LASVRIF-NH2; listed as Homo sapiens) [[Ala^130]hGal-7(129-135), alanine substitute peptide of hGal-7(129-135)]	abrogates the ability of the peptide to disrupt hGal-7 homodimers				
PACAP(28-38): control peptide selected based on similarity in amino acid length and minimal toxicity on the cell line (GKRYKQRVKNK) [reference compound]	No such effect was observed	No such effect was observed	No such effect was observed	do not induce toxicity in Jurkat T cells	did not induce apoptosis in Jurkat T cells
